According to publication PMC8151781, “Ca^2+ Regulates ERp57-Calnexin Complex Formation” (Molecules, 2021):

B1: luminal domain of human calnexin (residues 21-481) (domain or fragment, UniProt P27824 21-481, looked up)
chain: HDGHDDDVIDIEDDLDDVIEEVEDSKPDTTAPPSSPKVTYKAPVPTGEVYFADSFDRGTLSGWILSKAKKDDTDDEIAKYDGKWEVEEMKESKLPGDKGLVLMSRAKHHAISAKLNKPFLFDTKPLIVQYEVNFQNGIECGGAYVKLLSKTPELNLDQFHDKTPYTIMFGPDKCGEDYKLHFIFRHKNPKTGIYEEKHAKRPDADLKTYFTDKKTHLYTLILNPDNSFEILVDQSVVNSGNLLNDMTPPVNPSREIEDPEDRKPEDWDERPKIPDPEAVKPDDWDEDAPAKIPDEEATKPEGWLDDEPEYVPDPDAEKPEDWDEDMDGEWEAPQIANPRCESAPGCGVWQRPVIDNPNYKGKWKPPMIDNPSYQGIWKPRKIPNPDFFEDLEPFRMTPFSAIGLELWSMTSDIFFDNFIICADRRIVDDWANDGWGLKKAADGAAEPGVVGQMIEAAEERP
notes: calnexin (CNX), human, luminal domain, residues 21-481; pET15b construct; the N-terminal His tag was removed from the plasmid and a His tag added at the C-terminus; also called CNX; ER-luminal domain of CNX
B2: human ERp57 (residues 25-505) (enzyme, UniProt P30101 25-505, looked up)
chain: SDVLELTDDNFESRISDTGSAGLMLVEFFAPWCGHCKRLAPEYEAAATRLKGIVPLAKVDCTANTNTCNKYGVSGYPTLKIFRDGEEAGAYDGPRTADGIVSHLKKQAGPASVPLRTEEEFKKFISDKDASIVGFFDDSFSEAHSEFLKAASNLRDNYRFAHTNVESLVNEYDDNGEGIILFRPSHLTNKFEDKTVAYTEQKMTSGKIKKFIQENIFGICPHMTEDNKDLIQGKDLLIAYYDVDYEKNAKGSNYWRNRVMMVAKKFLDAGHKLNFAVASRKTFSHELSDFGLESTAGEIPVVAIRTAKGEKFVMQEEFSRDGKALERFLQDYFDGNLKRYLKSEPIPESNDGPVKVVVAENFDEIVNNENKDVLIEFYAPWCGHCKNLEPKYKELGEKLSKDPNIVIAKMDATANDVPSPYEVRGFPTIYFSPANKKLNPKKYEGGRELSDFISYLQREATNPPVIQEEKPKKKKKAQEDL
notes: ERp57 (protein disulfide isomerase family member), human, residues 25-505; Cloned into the NdeI and BamHI sites of pET15b; also called wild-type ERp57

Assays:
Conditions in all cases: both partners purified
[1] = biological target: B2; assay: ITC; ERp57 (370 μM) in the syringe titrated into CNX (25 μM) in the cell; 20 mM HEPES pH 7.2, 100 mM NaCl, with 1 mM CaCl2, 15 °C; one-set-of-sites model
[2] = biological target: B2; assay: ITC; ERp57 (370 μM) in the syringe titrated into CNX (25 μM) in the cell; 20 mM HEPES pH 7.2, 100 mM NaCl, without Ca2+, 15 °C; one-set-of-sites model
[3] = biological target: B1; assay: ITC; ERp57 (370 μM) in the syringe titrated into CNX (25 μM) in the cell; 20 mM HEPES pH 7.2, 100 mM NaCl, with 1 mM CaCl2, 15 °C; one-set-of-sites model
[4] = biological target: B1; assay: ITC; ERp57 (370 μM) in the syringe titrated into CNX (25 μM) in the cell; 20 mM HEPES pH 7.2, 100 mM NaCl, without Ca2+, 15 °C; one-set-of-sites model

Row | Kd [1] | Kd [2] | dH [3] | dH [4] | Binder
1 | 1520 nM | 880 nM |  |  | B1
2 |  |  | -3.81 kcal/mol | -3.31 kcal/mol | B2
